The source of these data is patent publication US20240294622A1 (SUZHOU TRANSCENTA THERAPEUTICS, published 2024).

Assay [1] deals with T1, HGREM1-His (ACRO) (human, UniProt O60565 25-184).
T1 construct: Lys25-Asp184 of NP_037504 with C-terminal polyhistidine tag (ACRO GR1-H52H3); they are put here; also called hGREM1 (ACRO); human gremlin (ACRO)
T1 sequence: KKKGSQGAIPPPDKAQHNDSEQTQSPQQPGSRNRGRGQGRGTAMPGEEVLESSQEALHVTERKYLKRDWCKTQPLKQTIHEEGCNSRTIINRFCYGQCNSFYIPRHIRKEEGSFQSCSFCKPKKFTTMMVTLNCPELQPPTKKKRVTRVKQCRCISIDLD
As to the kind of experiment: ELISA on coated human Gremlin-his; unit from the axis Ab(nM); panel called FIG. 19C in the text. The method, then: (§1) Clear polystyrene plates (BEAVER) were coated with 100 μl/well of a 0.5 μg/ml human gremlin (ACRO) and DAN (Sinobiological) in high pH coating buffer overnight at 4° C. Then the plates were washed once on an automatic plate washer using PBS+0.1% Tween 20 (Sigma). 100 μl of block solution consisting of PBS+1% BSA+1% normal goat serum+0.5% Tween 20 (Sigma) was added to each well and incubated at room temperature for 2 hours. Then 100 ul of antibodies (hybridoma or chimeric antibody 36F5, chimeric antibody 67G11, chimeric antibody 42B9) in antibody dilution buffer containing PBS+1% BSA+1% normal goat serum+0.01% Tween 20 starting from 2 μg/ml (13.33 nM) and then 4 fold serial dilution were added to each well of the plate and incubated for 1 hours at room temperature. Afterward the plates were washed three times with 200 ul of PBS+0.1% Tween20 followed by adding 100 μl/well 1:10000 Goat anti mouse IgG-HRP or mouse anti-human IgG-HRP (abcam), and incubate for 1 hour at room temperature. They were then washed 3× with PBS+0.1% Tween20. Finally, 100 μl/well of TMB (InnoReagents) was added to each well and after 2 minutes add 50 ul of stop solution to each well. The plates were read on a Multiscan FC microplate reader (Thermo Scientific) at 450 nm.
In general terms: ELISA stands for enzyme-linked immunosorbent assay.

For assay [2], the target named is T2, DAN-his (Sinobiological) (human, UniProt P41271 17-181, limits assumed).
T2 construct: also called DAN (Sinobiological); human DAN-his
T2 sequence (looked up): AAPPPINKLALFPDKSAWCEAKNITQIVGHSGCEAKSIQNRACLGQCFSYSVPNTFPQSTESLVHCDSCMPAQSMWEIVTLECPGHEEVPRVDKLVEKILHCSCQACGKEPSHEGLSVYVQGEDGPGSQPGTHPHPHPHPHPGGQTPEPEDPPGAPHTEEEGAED
As to the kind of experiment: ELISA on coated DAN-his; unit from the axis Ab(nM); panel called FIG. 19C in the text. The method, then: as §1

B1: chimeric antibody 42B9 (antibody, human IgG1, V domains shown)
VH: QVQLQQSGAELARPGASVKLSCKASGYTFTSYGIGWVKQRTGQGLEWIGEIYPRSGNTYNNEKFKGKATLTADKSSRTVYMELRSLISEDSAVYFCAREGYSNNYYAMDYWGQGTSVTVFS
VL: DVLMTQTPLSLPVSLGDQASISCISSQSLVHSNGNTYLEWYLQKPGLSPKLLIYKVSNRFSGVPDRLSGSGSGTDFTLRISRVEAEDLGVYYCFQGSHVPFTFGSGTKLEIK
As to B1, the concentration giving a half-maximal response (EC50) (usually the concentration that produces a half-maximal response) worked out at 0.0209 nM in assay [1] and 0.0203 nM in assay [2].

B2: chimeric antibody 67G11 (antibody, human IgG1, V domains shown)
VH: QVQLQQSGAELARPGASVKLSCKASGYTFTSYGIGWVKQRTGQGLEWIGEIYPRSGNTYNNEKFKGKATLTADKSSRTVYMELRSLISEDSAVYFCAREGYSNNYYAMDYWGQGTSVTVFS
VL: DVLMTQTPLSLPVSLGDQASISCRSSQSLVHSNGNTYLEWYLQKPGQSPKLLIYKVSNRFSGVPDRLSGSGSGTDFTLKISRVEAEDLGVYYCFQGSHVPFTFGSGTKLEIK
For B2, the results for the EC50 in assay [1] and in assay [2] were 0.019 nM and 0.0178 nM, respectively.
